Measurements taken from US20080044412A1, “Single-Domain Antibody Strengthening Fusion Protein Vh-Ldp-Ae” (INSTITUTE OF MEDICINAL BIOTECHNOLOGY CHINESE ACADEMY OF …, priority 2004, published 2008).
Several values for one entry are separate records, joined by “and”; a condition that tells them apart may be missing. Equal entries are not always repeated.

Legend:
[1] = tested on: PG cells; assay: MTT cytotoxicity assay, PG; type: cell-based; details: 72 h
Protocol: (§1) MTT assay was used. After digestion and counting, cells in exponential growth phase were seeded at 3000 cells/well in 96-well plates, and cultured at 37° C. in 5% CO2 for 24 hours. Drugs of various concentrations were added with 3 aliquots, and the cells were cultured for another 72 h. 50 μl of MTT (2 mg/ml) in serum-free RPMI 1640 were added into each well, and the cells were cultured at 37° C. for 4 h. Remove the culture medium gently; add 150 μl DMSO each well; incubate at room temperature for 15 min on a shaker; measure the absorbance at 560 nm on a microplate reader. Survival ratio and IC50 values were calculated according to the following equation: Survival ratio=(Atest−Ablank)/(Acontrol−Ablank)×100%.

[2] = tested on: KB cells; assay: MTT cytotoxicity assay, KB; type: cell-based, human; details: 72 h
Protocol: as §1

[3] = tested on: colon carcinoma 26; details: cited from earlier work
[4] = tested on: transplanted hepatoma 22; assay: Transplanted hepatoma 22 growth in mice; details: for Inhibition rate / Tumor volume x ± s: tail vein, day 14
Protocol: Kunming mice, weighing between 18-22 g, were randomly separated into different groups of 10 mice each. On day 0, hepatoma 22 cells (1.5×10^6 cells/0.2 ml/mouse) diluted with saline were transplanted subcutaneously into the right axilla of mice. On day 1 (after 24 h), the therapy was started and VH-LDP-AE at different doses, LDM at 0.05 mg/kg, mitomycin (MMC) at 1 mg/kg were administered respectively to the tumor bearing mice (0.2 ml/mouse) by injection into the tail vein. Mice of control group were injected with saline. Diameters of the tumors were measured every 3 days during the experiment. Weights of the mice were recorded. The tumor volumes were calculated with the following formula: V=0.5ab^2, where a and b is the long and the perpendicular short diameters of the tumor, respectively. The curves of tumor growth were plotted and the inhibition rates were calculated.

[5] = tested on: HT-1080 cells; assay: MTT cytotoxicity assay, HT-1080; type: cell-based; details: 72 h
Protocol: as §1

[6] = tested on: cecum carcinoma Hce-8693; details: nude mice; cited from earlier work
[7] = tested on: hepatoma Bel-7402; details: nude mice; cited from earlier work
[8] = tested on: type IV collagenase secreted by HT-1080 cells; assay: Gelatin zymography in HT-1080 cells; type: cell-based; details: 24 h, 25, 50, 100 μM (FIG. 8), dependent on concentration
Protocol: Gelatin zymography protocol was used. Exponentially growing HT-1080 cells were seeded at 10^5/well in 24-well plates and incubated at 37° C. in 5% CO2. After 24 h, the culture medium was removed and 1 ml serum-free RPMI 1640 medium was added for washing twice. Add 120 μl of serum-free RPMI 1640 medium and 30 μl of fusion protein VH-LDP as prepared in example 3 to each well, and add 30 μl PBS to control well. Culturing the cells at 37° C. for 24 h. Harvest the culture medium, and centrifuging at 500 g for 5 min. Then take the supernatant for non-denaturalization electrophoresis on SDS-PAGE. Wash the gels with distilled water 3 times. Put the gels into 100 ml of 2.5% TritonX-100, shake on a shaker for 30 min at low speed. Then Wash the gels 2 times with distilled water; repeat the washing process with TritonX-100 above. The gels was washed with distilled water 2 times, and incubated at 37° C. for 16-18 h in 100 ml of gelatinase buffer (50 mM Tris-HCl, pH 7.5, 200 mM NaCl, 10 mM CaCl2, 1 μM ZnCl2). The gels were stained with Coomassie-brilliant blue R-250 and destained with acetic acid: methanol:water (10:45:45). The negative stained bands were observed.

[9] = tested on: solid tumor of mouse hepatoma 22; assay: Immunohistochemical (SABC) staining of mouse hepatoma sections; type: binding; details: FIG. 7
Protocol: (§2) Immunohistochemical (IHC) staining was performed by streptavidin-biotin-peroxidase complex (SABC) staining with SABC kit (Boster Company). The sections were blocked by normal goat serum for 20 min at room temperature and the excessive liquid was removed. The sections without washing were added with diluted said VH-LDP fusion protein as prepared in example 3 and incubated at room temperature; then diluted anti-His6-tag antibody and biotinylated goat-anti-mouse IgG were added in turn. Finally SABC reagent was added. DAB kit was used as a chromogen for visualized reaction at room temperature. The sections were counter-stained by hematoxylin, dehydrated, cleared, sealed, and observed with microscope.

[10] = tested on: human hepatoma SMMC-7721 cells; assay: ELISA immunoreactivity with fixed SMMC-7721 cells; type: binding; details: FIG. 5
Protocol: (§3) Immunoreactivity of fusion protein VH-LDP was detected by ELISA. At first, type IV collagenase or tumor cells was coated or fixed to 96-well ELISA plates: well was coated with 100 μl of type IV collagenase (10 μg/ml, diluted by PBS) and the plates were stored at 4° C. overnight; Human hepatoma SMMC-7721 cells or human KB cells were seeded at 10^4/well in 96-well plates and cultured for 24 h, washed with PBS for 3 times, added 0.05% cold (4° C.) Glutaraldehyde and fixed for 15 min. Then the coated or fixed plates were washed with PBS 3 times, and blocked with 200 μl/well of 1% bovine serum albumin (BSA)/PBS at 4° C. overnight. The plates were washed 3 times with PBS. Then 200 μl of serial concentrations of fusion protein VH-LDP were added into each well of the plates and incubated for 2 hours at 37° C. Washing the plates 3 times with 0.05% Tween 20/PBS (PBST), adding 50 μl of anti-His6-Tag monoclonal antibody diluted 1:1500 to each well, and incubating at 37° C. for 1 h. Washing the plates 3 times with PBST, adding 50 μl of HRP conjugated goat anti-mouse IgG (at 1:2000 dilution), and incubating at 37° C. for 1 hour. Washing the plates with PBST 6 times, adding 100 μl of OPD substrate reaction solution to each well, incubating the plates at room temperature for 10 min in the dark. […] Then the optical density (OD) of each well was measured at 490 nm using a microplate reader.

[11] = tested on: type IV collagenase; assay: ELISA immunoreactivity with type IV collagenase; type: binding; details: FIG. 4
Protocol: as §3

[12] = State of refolded fusion protein in PBS solution; type: physicochemical
Protocol: The inventors attempted to make fusion gene in the form of VH-LDP by fusing VH domain against type IV collagenase to apoprotein LDP of LDM, and then expressing the fusion protein in E. coli.
The fusion protein VH-LDP after purification was refolded: the purified protein was diluted to a final concentration of 15 μM with eluting buffer mentioned above, and β-mercaptoethanol was added to a final concentration of 10 mM. After being stored at room temperature for 30 min, the sample was placed in a dialysis bag and dialyzed against at least 50 vol. of refolding buffer 1 (50 mM Tris-HCl pH 8.0, 1 mM EDTA, 200 mM NaCl, 6 M urea). And the following dialysis was against the same buffer with step-wise reduction in the urea concentration (3M, 2M, 1M, 0.5M, and 0M). On a 1-M stage, 750 μM of glutathione (GSSG) and 400 mM of L-Arginine were added to the dialysis buffer. Then the sample was dialyzed against 50 vol. of PBS solution (pH 7.4). Each dialysis was performed for 12 h and with buffer changed twice. All dialysis was performed at 4° C. After dialysis, the sample was centrifuged at 10,000 g for 30 min at 4° C. and the supernatant was collected. After being condensed, the active fusion protein VH-LDP was obtained and stored at −20° C. for later use.

[13] = tested on: mouse normal liver sections; assay: Immunohistochemical (SABC) staining of mouse normal liver sections; type: binding; details: FIG. 7
Protocol: as §2

[14] = tested on: human colon carcinoma HT-29 cells; assay: MTT combination assay on HT-29 cells (CDI); type: cell-based; details: HT-29, MTT
Protocol: MTT assay was used. After trypsin-EDTA digestion, the human colon carcinoma HT-29 cells in exponential growth were seeded at 4000 cells/well in 96-well plates, and cultured for 24 hours. Then add 20 μl of different concentrations of hydroxylcamptothecin or 5-fluorouracil; 8 hours later, add different concentrations of VH-LDP-AE. Continue to culture the cells at 37° C. in 5% CO2 for 72 h. Add 50 μl of MTT at concentration of 2 mg/ml, culture the cells at 37° C. for 4 hours. Then remove the supernatant; add 150 μl DMSO each well; ten minutes later, measure the absorbance at 560 nm on a microplate reader. In cancer pharmacology, interactions of drug combination were evaluated by coefficient of drug interaction (CDI). There existed synergistic effects with CDI<1, and there existed very significant ones with CDI<0.7. […] It was usual that monoclonal antibodies were combined with anti-cancer drugs.

[15] = tested on: bFGF-stimulated angiogenesis; assay: Chick embryo allantoic membrane (CAM) anti-angiogenesis assay; type: in vivo; details: 72 h, 0.5 μg/egg (FIG. 10)
Protocol: Anti-angiogenic activity of VH-LDP-AE was examined in chick embryoallantoic membrane assay (CAM). The surface of 7-day-old post-fertilization chick eggs (White Leghorn) in a 60% humidified incubator at 37° C. was sterilized and the CAM was […]) exposed by cutting a window (2 cm^2) on the egg shell using the false air-sac technique. After 24 h, 10 μl of bFGF was dipply added to agarose disks with the energized fusion protein VH-LDP-AE at various concentrations which was prepared as mentioned in Example 7, and then the disks were placed on top of the CAM. After the windows were sealed with transparent tape, the eggs were incubated for further 72 h.

## lidamycin [LDM]
[1]
  IC50: 6.3 pM
[2]
  IC50: 1.08 pM
[3]
  growth of colon carcinoma 26 in mice: remarkably inhibited
[4]; 0.05 mg/kg
  Inhibition rate: 79.6% and 79.6^ΔΔ %
  Tumor volume x ± s: 0.94 ± 0.53 cm^3
[4]; mice
  maximal tolerated dose: 0.05 mg/kg
[5]
  IC50: 2.21 pM
[6]
  growth of human cancer xenograft cecum carcinoma Hce-8693: potent inhibitory effect
[7]
  growth of human cancer xenograft hepatoma Bel-7402: potent inhibitory effect

## CO[C@@]12[C@H](COC(N)=O)C3=C(C(=O)C(C)=C(N)C3=O)N1C[C@@H]1N[C@@H]12 [MMC, mitomycin]
[4]; 1 mg/kg, begin
  Body weight begin: 18.82 g
[4]; 1 mg/kg, end (day 14)
  Body weight end: 29.29 g
[4]; 1 mg/kg
  Inhibition rate: 51.5^Δ %
  Tumor volume x ± s: 2.23 ± 2.15 cm^3
[4]; 1 mg/kg, listed as mitomycin
  Inhibition rate: 51.5%

B1: VH-LDP: VH domain of anti-type IV collagenase mAb 3G11, GGGGS spacer, lidamycin apoprotein LDP and His6-Tag; SEQ ID NO: 2 (protein)
chain: MQVKLQQSGTEVVKPGASVKLSCKASGYIFTSYDIDWVRQTPEQGLEWIGWIFPGEGSTEYNEKFKGRATLSVDKSSSTAYMELTRLTSEDSAVYFCARGDYYRRYFDLWGQGTTVTVSSGGGGSAPAFSVSPASGLSDGQSVSVSVSGAAAGETYYIAQCAPVGGQDACNPATATSFTTDASGAASFSFVVRKSYTGSTPEGTPVGSVDCATAACNLGAGNSGLDLGHVALTFGLEHHHHHH
modifications: fusion protein of Vh and LDP
[8]
  inhibition of type IV collagenase activity secreted by cancer cells: inhibit significantly
[9]
  immunohistochemical staining in mouse hepatoma sections: positively stained
[10]
  binding activity to human hepatoma SMMC-7721 cells: positive
[11]
  binding activity to type IV collagenase: positive
[12]
  solubility after refolding: soluble in PBS solution
[12]; after refolding
  fraction existing in monomer state: 75%
[13]
  immunohistochemical staining in mouse normal liver sections: negatively stained

B2: VH-LDP-AE (conjugate)
chain: B1 chain
modifications: AE chromophore assembled; fusion protein of Vh and LDP
[14]; 10 μM of 5-fluorouracil plus 3 ng/ml of VH-LDP-AE
  coefficient of drug interaction (CDI): < 0.7
[14]; hydroxylcamptothecin (1 μM) plus VH-LDP-AE (3 ng/ml)
  coefficient of drug interaction (CDI): < 0.7
[15]
  suppression of angiogenesis stimulated by bFGF: significantly suppress angiogenesis
[4]; 0.125 mg/kg
  Inhibition rate: 88.1% and 88.1*^ΔΔ %
  Tumor volume x ± s: 0.55 ± 0.24 cm^3
[4]; 0.25 mg/kg
  Inhibition rate: 95.9% and 95.9**^ΔΔ %
  Tumor volume x ± s: 0.19 ± 0.21 cm^3
[4]; both 0.25 mg/kg and 0.125 mg/kg, more potent than free lidamycin 0.05 mg/kg (FIG. 11)
  effect on growth of hepatoma 22 in mice: inhibited or retarded the growth
[4]; mouse, in vivo
  body weight loss and side-effects during the experiments: No body weight loss and other severe side-effects were found
